Assay results as given in patent publication US20180015177A1 (Genentech, published 2018).
Where “and” joins values, the source holds several entries; their conditions need not be identical. Identical values can stand only once.

T1: Cynomolgus monkey Ly6E, N-terminal gD-tagged, stably expressed on PC3 cells (cynomolgus monkey, UniProt Q16553 21-101 (human entry))
T1 construct: also called cyno Ly6E; not shown: N-terminal gD tag of the retroviral vector
T1 chain: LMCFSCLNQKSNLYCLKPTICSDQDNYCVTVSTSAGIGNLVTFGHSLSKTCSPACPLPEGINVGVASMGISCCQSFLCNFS

T2: human Ly6E, N-terminal gD-tagged, stably expressed on PC3 cells (human, UniProt Q16553 21-101)
T2 construct: GPI-linked protein on cells; also called hu Ly6E; human Ly6E transfected PC3 cells; not shown: N-terminal gD tag of the retroviral vector
T2 sequence: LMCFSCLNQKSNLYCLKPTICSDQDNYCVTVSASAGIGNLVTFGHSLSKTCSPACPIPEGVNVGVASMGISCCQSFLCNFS

T3: Hu Ly6E (immobilized on CM5 chip for SPR) (human, UniProt Q16553 21-101)
T3 construct: also called human Ly6E
T3 sequence: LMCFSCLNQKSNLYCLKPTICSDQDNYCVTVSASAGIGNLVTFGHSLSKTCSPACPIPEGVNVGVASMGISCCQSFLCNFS

B1: chimeric 9B12 (antibody, V domains shown)
VH: QVQLKESGPGLVAPSQSLSLTCTVSGFSLTGYSVNWVRQPPGKGLEWLGMIWGDGSTDYNSALKSRLTISKDNSKSQVFLKMNSLQTDDTARYYCARDYYFNYASWFAYWGPGTLVTVSA
VL: DIQMTQTTSSLSASLGDRVTISCSASQGISNYLNWYQQKPDGTVKLLIYYTSNLHSGVPSRFSGSGSGTDYSLTISNLEPEDIATYYCQQYSELPWTFGGGTKVEIK
notes: Chimeric IgG with the mouse 9B12 variable domains; also called ch9B12; Ch 9B12
B2: hu9B12.v12 (antibody, V domains shown)
VH: EVQLVESGPALVKPTQTLTLTCTVSGFSLTGYSVNWIRQPPGKALEWLGMIWGDGSTDYNSALKSRLTISKDTSKNQVVLTMTNMDPVDTATYYCARDYYFNYASWFAYWGQGTLVTVSS
VL: DIQMTQSPSSLSASVGDRVTITCSASQGISNYLNWYQQKPGKTVKLLIYYTSNLHSGVPSRFSGSGSGTDYTLTISSLQPEDFATYYCQQYSELPWTFGQGTKVEIK
notes: Expressed and tested as IgG; Iodinated (125I) tracer plus unlabeled antibody in the Scatchard analysis; also called humanized anti-Ly6E antibody

Key:
[1] = target: T1, Cynomolgus monkey Ly6E, N-terminal …; assay: Scatchard analysis (125I antibody) on PC3 cells expressing gD-tagged cyno Ly6E
Method: (§1) A scatchard analysis was performed to determine affinity and binding sites per cell for the antibodies. Hu.9B12v12 antibody was iodinated several times using the Iodogen method. […] Competition reaction mixtures of 50 μL containing a fixed concentration of iodinated antibody and decreasing concentrations of unlabeled antibody were placed into 96-well plates. The PC3 cells stably transduced with retrovirus to express either recombinant human or Cynomolgus monkey gD tagged Ly6E were detached from flasks using Sigma Cell Dissociation Solution and were washed with binding buffer (DMEM with 2% FBS, 50 mM HEPES, pH 7.2, and 0.1% sodium azide). The washed cells were added at an approximate density of 200,000 cells in 0.2 mL of binding buffer to the 96-well plates containing the 50-μL competition reaction mixtures. […] The filters were counted on a Wallac Wizard 1470 gamma counter (PerkinElmer Life and Analytical Sciences; Wellesley, Mass.). The binding data were evaluated using New Ligand software (Genentech), which uses the fitting algorithm of Munson and Rodbard (1980) to determine the binding affinity of the antibody.

[2] = target: T2, human Ly6E, N-terminal gD-tagged, …; assay: cell-based Ly6E competitive binding assay, human Ly6E; competitor mouse 9B12
Method: (§2) Cell-based Ly6E competitive binding assay—Cultured human Ly6E transfected PC3 cells were harvested with 5 mM EDTA containing PBS. Cells were washed with PBS and added onto a 384-well high binding plate (Meso Scale Discovery Technology (MSD); Gaithersburg, Md.). The plate was kept at room temperature for 1 hr to allow cells to adhere to the plate as described (See Lu, Y., Wong, W. L. & Meng, Y. G. A high throughput electrochemiluminescent cell-binding assay for therapeutic anti-CD20 antibody selection. Journal of Immunological Methods 314, 74-79 (2006)). The plate with cells was blocked with fetal bovine serum containing PBS for 1 hr and then cooled on ice. Serially diluted antibody variant samples were mixed with equal volume of fixed concentration of mouse 9B12 Ab. The mixtures were added onto the plates and incubated at 4° C. with gentle shaking for 1 hr.
The plate was then washed with cold PBS and an anti-mouse IgG Fc specific Ab (Jackson ImmunoReserach; West Grove, Pa.) labeled with sulfo-ruthenium tag was added to the plate as the detection reagent. […] After incubation the plate was washed again, and MSD read buffer (MSD; Gaithersburg, Md.) was added onto the wells. The plate was read with a MSD SectorÒ imager 6000. The data was graphed and analyzed using KaleidaGraph software (Synergy Software; Reading, Pa.) to determine IC₅₀ values.

[3] = target: T1, Cynomolgus monkey Ly6E, N-terminal …; assay: cell-based Ly6E competitive binding assay, cyno Ly6E; competitor mouse 9B12
[4] = target: T2, human Ly6E, N-terminal gD-tagged, …; assay: cell-based competitive binding on human Ly6E PC3 cells; competitor mouse 9B12
Method: as §2
The plate was then washed with cold PBS and an anti-mouse IgG Fc specific Ab (Jackson ImmunoReserach; West Grove, Pa.) labeled with sulfo-ruthenium tag was added to the plate as the detection reagent. The plate was incubated at 4° C. with gentle shaking for 1 hr. After incubation the plate was washed again, and MSD read buffer (MSD; Gaithersburg, Md.) was added onto the wells. The plate was read with a MSD SectorÒ imager 6000. The data was graphed and analyzed using KaleidaGraph software (Synergy Software; Reading, Pa.) to determine IC₅₀ values.

[5] = target: T3, Hu Ly6E (immobilized on CM5 chip for …); assay: SPR (Biacore T100), Hu Ly6E immobilized, IgG injected, single cycle kinetics, apparent KD
Method: SPR Affinity Determination—Affinity determinations were performed by surface plasmon resonance using single cycle kinetics on a BIAcore™-T100. Hu Ly6E was immobilized via EDC/NHS chemistry according to supplier's instructions (˜20 response units (RU)) on a CM5 chip. For kinetic measurement, three-fold serial dilution of anti-Ly6E IgG (5 to 405 nM) in PBST were injected with 200 s for association & 300 s for dissociation at a flow rate of 30 ul/min at 25° C. Binding response was corrected by subtracting both the RU from a blank flow cell and from buffer run on the same flow cell. A 1:1 Languir model of simultaneous fitting of kₒₙ and koff was used to measure the apparent KD.

[6] = target: T2, human Ly6E, N-terminal gD-tagged, …; assay: Scatchard analysis (125I antibody) on PC3 cells expressing gD-tagged human Ly6E
Method: as §1

[7] = target: T2, human Ly6E, N-terminal gD-tagged, …; assay: Scatchard analysis on PC3 cells expressing human Ly6E
Method: as §1

[8] = target: T1, Cynomolgus monkey Ly6E, N-terminal …; assay: Scatchard analysis on PC3 cells expressing cyno Ly6E
Method: as §1

Binder | Kd [1] | Kd [2] | Kd [3] | IC50 [4] | Kd [5] | Kd [6] | Kd [7] | Kd [8]
B1 | 2.9 nM | 3 to 6 nM | 5 to 7 nM | 3 nM and 6 nM and 5 nM | 6 nM | 2 nM | 4 nM | 4 nM
B2 | 7.9 nM | 15 to 19 nM | 16 to 40 nM | 15 nM and 16 nM | 7 nM | 4 nM | 4 nM | 14 nM
